Experimental findings from patent US20120034231A1 are described below.

Assay [1] addresses cynomolgus IL12Rβ1 (cynomolgus). The assay is described as follows: FACS on Baf3 cells transfected with cyno IL12Rβ1, mouse control mAb.
A further assay has as its target human IL12Rβ1 (human) (UniProt P42701). The assay is described as follows: FACS on Baf3 cells transfected with human IL12Rβ1, mouse control mAb.

A word on the EC50: it is the midpoint of the concentration-response curve. The low end stands for greater potency, the high end for weaker potency. With “Mab839 (mouse monoclonal anti-human IL12Rβ1 control antibody, R&D Systems, Cat# MAB839)”, the EC50 was 1.47 nM in assay [1] and 2.35 nM with human IL12Rβ1 (human).
